Laboratory results as given in US20110312505A1 (University of Texas, published 2011).

T1: human B cell regulator of IgH transcription (BRIGHT) (human, UniProt Q99856 1-593, limits assumed)
T1 construct: Recombinant, made in bacteria
T1 sequence (looked up): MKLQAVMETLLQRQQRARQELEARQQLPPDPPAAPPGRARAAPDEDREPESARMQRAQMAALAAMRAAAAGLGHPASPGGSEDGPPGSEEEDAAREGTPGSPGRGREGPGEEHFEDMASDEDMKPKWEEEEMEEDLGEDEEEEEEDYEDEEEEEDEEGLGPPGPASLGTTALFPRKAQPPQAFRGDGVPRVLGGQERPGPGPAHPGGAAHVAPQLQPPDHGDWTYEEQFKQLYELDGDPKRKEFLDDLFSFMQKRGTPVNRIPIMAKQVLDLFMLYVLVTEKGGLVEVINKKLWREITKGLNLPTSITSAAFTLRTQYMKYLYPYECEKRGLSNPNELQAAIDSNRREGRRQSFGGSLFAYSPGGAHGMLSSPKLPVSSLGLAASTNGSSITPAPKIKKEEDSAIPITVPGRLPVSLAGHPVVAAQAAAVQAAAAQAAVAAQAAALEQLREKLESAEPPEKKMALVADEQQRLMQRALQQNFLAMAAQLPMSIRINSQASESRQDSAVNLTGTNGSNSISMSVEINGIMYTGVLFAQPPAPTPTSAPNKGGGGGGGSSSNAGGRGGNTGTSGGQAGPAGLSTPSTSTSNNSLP

T2: human complement protein C1s (human, UniProt P09871 16-688)
T2 construct: Purified protein, bought; coated on ELISA plates, amine-coupled to a CM5 chip, or native in human serum (immunoprecipitation); also called human complement serine protease
T2 sequence (looked up): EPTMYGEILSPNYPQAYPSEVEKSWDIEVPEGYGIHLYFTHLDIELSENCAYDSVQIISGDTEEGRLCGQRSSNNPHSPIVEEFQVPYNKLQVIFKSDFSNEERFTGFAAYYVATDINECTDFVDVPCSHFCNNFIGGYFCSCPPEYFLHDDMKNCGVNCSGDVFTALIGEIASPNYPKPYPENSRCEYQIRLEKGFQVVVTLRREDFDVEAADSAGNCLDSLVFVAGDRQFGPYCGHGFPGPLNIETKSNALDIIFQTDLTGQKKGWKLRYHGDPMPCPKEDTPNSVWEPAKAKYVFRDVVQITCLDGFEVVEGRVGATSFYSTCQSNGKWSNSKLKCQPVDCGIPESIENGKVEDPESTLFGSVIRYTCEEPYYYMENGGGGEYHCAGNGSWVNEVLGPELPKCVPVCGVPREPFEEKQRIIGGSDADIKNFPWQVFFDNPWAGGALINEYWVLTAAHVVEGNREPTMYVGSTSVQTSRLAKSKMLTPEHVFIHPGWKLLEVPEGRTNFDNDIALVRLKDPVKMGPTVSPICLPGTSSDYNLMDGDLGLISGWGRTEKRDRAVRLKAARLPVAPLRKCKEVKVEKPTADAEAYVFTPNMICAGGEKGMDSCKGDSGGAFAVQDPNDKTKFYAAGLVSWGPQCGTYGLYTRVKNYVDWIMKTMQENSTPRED


Assays:
[1] = target: T1, human B cell regulator of IgH …; test: ELISA, antigen-coated plate, titration of purified IgG, anti-human Fc-HRP
Protocol: (§1) Purified IgGs were added to the plate at various concentrations for 1.5 h and washed with PBS/0.05% Tween-20. A polyclonal antibody of goat anti-human Fc region conjugated HRP was used for detection and developed with TMB substrate and stopped with 2N H₂SO₄. The absorbance was measured at 450 nm with a 96 well spectrophotometer. A titration curve of purified IgGs was used to determine an approximate IC50 for binding (Table 8).

[2] = target: T2, human complement protein C1s; test: ELISA, E. coli whole cell lysate with scFv from combinatorial library
[3] = target: T2, human complement protein C1s; test: ELISA, antigen-coated plate, titration of purified IgG, anti-human Fc-HRP
Protocol: as §1

[4] = target: T2, human complement protein C1s; test: SPR (BIAcore 3000), C1s amine-coupled to CM5 chip, antibody injected, bivalent model
Protocol: FIGS. 13A-13B. Kinetic binding analysis of purified anti-C1s IgGs by Surface Plasmon Resonance (Biacore). (FIG. 13A) Anti-C1s 2.1L-2.1HB was injected onto a chip with immobilized C1s at 25 nM, 50 nM, 100 nM or 200 nM and (FIG. 13B) As above for anti-C1s 2.3L-2.2H injected at 2.625 nM, 5.25 nM, 10.5 nM or 21 nM.
(§2) Surface Plasmon Resonance (Biacore) C1s was covalently immobilized on a CM5 chip (GE healthcare, NJ) at a level of approximately 200 response units via standard amine coupling chemistry as described in the manufacturer's protocol. BSA was similarly coupled for baseline correction. All kinetic analyses were performed at 25° C. in HBS-EP (10 mM HEPES, 150 mM NaCl, 50 μM EDTA, 0.005% P-20, pH 7.4) on a BIAcore 3000 (GE healthcare, NJ). Antibodies were injected over immobilized antigen at a flow rate of 50 μl/min or 100 μl/min and the chip was regenerated with a single 10s injection of 20 mM NaOH. Each sensogram was run in duplicate. Kinetic and equilibrium constants were determined by global fitting to a bivalent model using BIAevaluation software (GE healthcare, NJ).

[5] = target: T2, human complement protein C1s; test: SPR (Biacore), IgG on immobilized C1s
Description: Antibodies were recombinantly expressed and purified as monomeric scFv fragments in E. coli and as full-length IgG antibodies in HEK 293F cells. […] Furthermore, the antibodies were suitable for functional assays, such as sandwich ELISA and immunoprecipitation of C1s from human serum (FIGS. 14-15).
as §2

Binder	ELISA Signal (OD450 on antigen-coated wells relative to BSA-coated wells) [2]	EC50 (half-maximal binding) [3]	other results
anti-BRIGHT IgG 1.2L-1.1H (antibody, V domains shown, Full-length IgG with human kappa and human IgG1 constant regions (pMAZ vectors, HEK293-F); also called BRIGHT 1.2L-1.1H) VH: EVKLVESGGDLVKPGGSLKLSCAASGFTFSSYGMSWVRQTPDKRLEWVATISSGGSYTYYPDSVKGRFTISRDNAKNTLYLQMSSLKSEDTAMYYCARHDYGNYVDYWGQGTTLTVSS VL: not shown			EC50 (half-maximal binding) [1]: 1000 nM
anti-C1s IgG 2.1L-2.1H (antibody, V domains shown, also called C1s 2.1L-2.1H) VH: QVQLQQSGAELARPGASVKMSCKASGYTFTSYTMHWVKQRPGQGLEWIGYINPSSGYTNYNQKFKDKATLTADKSSSTANMQLSSLTSEDSAVYYCARSDRYDGYFDYWGQGTTLTVSS VL: DVLMTQTPLSLPVSLGDQASISCRSSQSIVHSNGDTYLEWYLQKPGQSPKLLVYKLSNRFSGVPDRFSGSGSGTDFTLKISRVEAEDLGVYYCFQGSHVPLTFGAGTKLEIK		50 nM	
anti-C1s IgG 2.3L-2.2H (antibody, V domains shown, Full-length IgG with human kappa and human IgG1 constant regions (pMAZ vectors, HEK293-F); also called C1s 2.3L-2.2H; 2.3L-2.2H (IgG)) VH: EVKLVESGGGFVKPGGSLKLSCAASGFTFSTYGMSWVRQTPEKRLEWVASISAGGTTYYSDSVKGRFTISRDNARNILYLQMSSLRSEDTAMYYCARWLLLAYWGQGTLVTSSA VL: not shown		0.43 nM	Kd [4]: 0.43 nM; koff [4]: 0.00019 s⁻¹; kon [4]: 450000 M⁻¹ s⁻¹
anti-C1s IgG 2.2L-2.2H (antibody, V domains shown, Full-length IgG made in HEK 293F cells; also called C1s 2.2L with 2.2H) VH: EVKLVESGGGFVKPGGSLKLSCAASGFTFSTYGMSWVRQTPEKRLEWVASISAGGTTYYSDSVKGRFTISRDNARNILYLQMSSLRSEDTAMYYCARWLLLAYWGQGTLVTSSA VL: DIVMTQSPASLAVSLGQRATISCRASESVDSYGNSFMHWYQQKPGQPPKLLIYRASNLESGIPARFSGSGSRTDFTLTINPVEADDVTTYYCQQSNEDPWTFGGGTKLEIK			Kd [5]: ~500 nM

Now from value to binder, other results behind:

ELISA Signal (OD450 on antigen-coated wells relative to BSA-coated wells) [2]	EC50 (half-maximal binding) [3]	Binder	other results
3.1 fold over BSA wells		anti-C1s scFv 2.2L-2.2H (scFv, scFv in E. coli whole cell lysate; also called C1s-2 2L-2H) scFv: DIVMTQSPASLAVSLGQRATISCRASESVDSYGNSFMHWYQQKPGQPPKLLIYRASNLESGIPARFSGSGSRTDFTLTINPVEADDVTTYYCQQSNEDPWTFGGGTKLEIKGGGGSGGGGSGGGGSGGGGSEVKLVESGGGFVKPGGSLKLSCAASGFTFSTYGMSWVRQTPEKRLEWVASISAGGTTYYSDSVKGRFTISRDNARNILYLQMSSLRSEDTAMYYCARWLLLAYWGQGTLVTSSA	
8.8 fold over BSA wells		anti-C1s scFv 2.3L-2.3H (scFv, scFv in E. coli whole cell lysate; also called C1s-2 3L-3H) scFv: DIVMTQSPLTLTVTIGQPASISCKSSQSLLDSDGKTYLNWLLQRPGQSPKRLIYLVSKLDSGVPDRFTGSGSGTEFTLKTSRVEAEDLGVYYCWQGTHFPHFGGGTKLEIKGGGGSGGGGSGGGGSGGGGSQVQLQQSGTVLARPGASVKMSCKASGYTFTSYWMHWVKQRPGQGLEWIGAIYPGNSDTSYNQKFKGKAKLTAVTSTSTAYMELSSLTNEDSAVYYCTRSDGYYYFDYWGQGTTLTVSSA	
	100 nM	anti-C1s IgG 2.3L-2.3H (antibody, V domains shown, Full-length IgG with human kappa and human IgG1 constant regions (pMAZ vectors, HEK293-F); also called C1s 2.3L-2.3H) VH: QVQLQQSGTVLARPGASVKMSCKASGYTFTSYWMHWVKQRPGQGLEWIGAIYPGNSDTSYNQKFKGKAKLTAVTSTSTAYMELSSLTNEDSAVYYCTRSDGYYYFDYWGQGTTLTVSS VL: not shown	
4.22 fold over BSA wells		anti-C1s scFv 2.3L-2.2H (scFv, scFv in E. coli whole cell lysate; also called C1s-2 3L-2H) scFv: DIVMTQSPLTLTVTIGQPASISCKSSQSLLDSDGKTYLNWLLQRPGQSPKRLIYLVSKLDSGVPDRFTGSGSGTEFTLKTSRVEAEDLGVYYCWQGTHFPHFGGGTKLEIKGGGGSGGGGSGGGGSGGGGSEVKLVESGGGFVKPGGSLKLSCAASGFTFSTYGMSWVRQTPEKRLEWVASISAGGTTYYSDSVKGRFTISRDNARNILYLQMSSLRSEDTAMYYCARWLLLAYWGQGTLVTSSA	
